Source: US20140220040A1 (ARCA BIOPHARMA, published 2014)

T1: Human LRP6-Fc (R&D Systems), recombinant human LRP6 containing the complete extracellular domain (human, UniProt O75581 20-1370)
T1 construct: Bought protein; also called hLRP6; Fc-antigen; not shown: Fc part of the bought fusion protein
T1 sequence: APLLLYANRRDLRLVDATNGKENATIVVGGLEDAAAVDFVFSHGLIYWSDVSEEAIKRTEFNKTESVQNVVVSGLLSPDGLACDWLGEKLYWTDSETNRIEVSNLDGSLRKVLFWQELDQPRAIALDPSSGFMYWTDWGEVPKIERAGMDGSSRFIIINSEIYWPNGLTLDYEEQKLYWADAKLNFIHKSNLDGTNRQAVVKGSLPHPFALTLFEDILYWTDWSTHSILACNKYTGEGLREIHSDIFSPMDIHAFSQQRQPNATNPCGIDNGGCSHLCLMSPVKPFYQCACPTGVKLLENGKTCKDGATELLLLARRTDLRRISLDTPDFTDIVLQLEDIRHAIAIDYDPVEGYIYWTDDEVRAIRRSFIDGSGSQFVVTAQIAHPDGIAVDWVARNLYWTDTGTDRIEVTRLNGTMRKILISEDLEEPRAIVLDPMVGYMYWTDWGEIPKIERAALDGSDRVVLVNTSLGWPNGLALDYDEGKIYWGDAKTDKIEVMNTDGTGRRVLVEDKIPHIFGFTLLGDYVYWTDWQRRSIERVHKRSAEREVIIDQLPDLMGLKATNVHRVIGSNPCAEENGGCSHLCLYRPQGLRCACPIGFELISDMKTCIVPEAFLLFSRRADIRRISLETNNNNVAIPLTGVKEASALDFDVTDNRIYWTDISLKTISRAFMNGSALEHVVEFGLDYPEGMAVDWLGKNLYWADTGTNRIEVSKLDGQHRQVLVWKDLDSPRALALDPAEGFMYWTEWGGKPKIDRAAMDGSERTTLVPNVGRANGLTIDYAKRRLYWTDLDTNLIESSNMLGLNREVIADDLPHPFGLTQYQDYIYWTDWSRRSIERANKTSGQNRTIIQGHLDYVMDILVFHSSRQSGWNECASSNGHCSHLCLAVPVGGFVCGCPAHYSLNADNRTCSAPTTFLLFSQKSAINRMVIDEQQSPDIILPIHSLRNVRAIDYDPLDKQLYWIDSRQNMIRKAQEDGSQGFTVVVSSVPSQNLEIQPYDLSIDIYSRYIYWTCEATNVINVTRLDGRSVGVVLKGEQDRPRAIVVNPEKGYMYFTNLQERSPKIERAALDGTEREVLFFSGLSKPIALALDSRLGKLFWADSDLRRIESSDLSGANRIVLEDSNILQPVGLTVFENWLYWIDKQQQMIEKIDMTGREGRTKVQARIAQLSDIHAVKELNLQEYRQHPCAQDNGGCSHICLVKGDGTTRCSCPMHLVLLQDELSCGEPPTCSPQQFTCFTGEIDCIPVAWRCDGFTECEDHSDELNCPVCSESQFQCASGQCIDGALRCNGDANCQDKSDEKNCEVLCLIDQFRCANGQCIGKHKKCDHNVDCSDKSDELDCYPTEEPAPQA


Molecular target: T1, Human LRP6-Fc (R&D Systems), …
Assay: SPR (BIAcore), mAb captured on anti-mouse chip, Fc-antigen injected, 1:1 model
Method: Kinetic rate constants (kₐ and kd) were determined using surface plasmon resonance, and affinities (KD) were then calculated from the rate constants (kd/kₐ). Surface plasmon resonance was carried out on a BIAcore system (Biacore International AB, Uppsala, Sweden). Each murine anti-LRP6 mAb sample was diluted 100 fold and captured onto an anti-mouse sensor chip surface. The running buffer contained 10 mM HEPES, 150 mM NaCl, 0.005% Tween-20 and 0.1 mg/ml BSA. Following the capturing step, the Fc-antigen was injected at 45 nM as the highest concentration in a 3-fold dilution series. The association and dissociation phases were monitored for 8 and 60 minutes, respectively. The antigen response data were fit into a 1:1 interaction model.

| Binder | Kd [nM] | koff [s⁻¹] | kon [M⁻¹ s⁻¹] |
| --- | --- | --- | --- |
| anti-LRP6 monoclonal antibody 413.1 (antibody, V domains shown, Murine hybridoma mAb, protein G purified; also called VH5/VL5) VH: EIQLQQSGPELVKPGASVKVSCKASGYAFTSYNMYWVKQSHGKGLEWIGYIDPYNGGTDSNQNFKGKATLTVDKSSSTAFMHLNSLTSEDSAVYYCARGGMGLRRDHFDYWGQGTSLTVSS VL: QIVLTQSPAIMSASPGEKVTISCSANSSVRYMFWYQQKPGSFPKPWTYRTSNLASGVPARFSGSGSGTSYSLTISSMEAEDVATYYCQQYHSYPWTFGGGTKLEI | 18 | 8.47e-05 | 4700 |
| anti-LRP6 monoclonal antibody 856.6 (antibody, V domains shown, Murine hybridoma mAb, protein G purified; also called VH11/VL11) VH: QVQLQQSGPELVKPGASVRISCKASGYTFTTYYIHWLKQRPGQGLEWIGWIFPGNVNTKYNAKFKGKATLTADKSSSTAYMQLSSLTSEDSAVYFCAREGLQYYFDYWGQGTTLTVSS VL: QIVLTQSPAIMSASPGEKVTISCSANSSVRFMFWYQQKPGSSPKPLIYRTSNLASGVPARFSGSGSGTSYSLTISSMEAEDAATYYCQQYHSYPWTFGGGTKLEI | 0.95 | 4.5e-05 | 47400 |
| anti-LRP6 monoclonal antibody 620.1 (antibody, V domains shown, Murine hybridoma mAb, protein G purified; also called VH10/VL10) VH: EIQLQQSGPELVKPGASVKVSCKASGYAFTSYNMYWVKQSHGKSLEWIGYIDPYNGGTNYNQKFKGKATLTVDKSSSTAYMHLNSLTSEDSAVYYCARGGMGLRRDYFDFWGQGTTLTVSS VL: not shown | 1.73 | 7.7e-05 | 44600 |
| anti-LRP6 monoclonal antibody 537.2 (antibody, V domains shown, Murine hybridoma mAb, protein G purified; also called VH8/VL8) VH: DVQLQESGPGLVKPSQSLSLTCSVTGYSITSGYYWNWIRQFPGDKLEWMGHINYDGRDNYNPSLKNRISITRDTSKNQFFLKLNSVTTEDTATYYCAREFGNFPYYFDYWGQGTTLTVSS VL: QIVLTQSPAIMSASPGEKVTISCSAYSSVRFMFWYQQKPGSSPKPLIYRTSNLASGVSARFSGSGSGTSYSLTISSMEAEDAATYYCQQYHSYPWTFGGGTKLEI | 0.9 | 3.15e-05 | 35200 |
| anti-LRP6 monoclonal antibody 421.1 (antibody, V domains shown, Murine hybridoma mAb, protein G purified; also called VH6/VL6) VH: QVQLQQSGPELVKPGASVRISCKASGYTFTTYYIHWLKQRPGQGLEWIGWIFPGNVNTKYNAKFKGKATLTADKSSSTAYMQLSSLTSEDSAVYFCAREELQYYFDYWGQGSTLTVSS VL: QIVLTQSPAIMSASPGEKVTISCSANSSVRFMFWYQQKPGSSPKPLIYRTSNLASGVPARFSGCGSGTSYSLTISSMEAEDAATYYCQQYHSYPWTFGGGTKLEI | 3.2 | 0.000114 | 35400 |
| anti-LRP6 monoclonal antibody 1253.12 (antibody, V domains shown, Murine hybridoma mAb, protein G purified; also called VH18/VL18) VH: QVQLQQSGPELVMPGASVRISCKASGYTFTNYYLHWVKQRPGQGLEWIGWIYPGNVNTKYNEKFKGKASLTADKSSSTAYMQLSSLTSEDSAVYFCAREGLQYYFDYWAQGTTLTVSS VL: QIVLTQSPAIMSASPGEKVTISCSANSSVRYMFWYQQKPGSFPKPWIYRTSNLASGVPARFSGSGSGTSYSLTISSMEAEDVATYYCQQYHSYPWTFGGGTKLEI | 2.15 | 7.3e-05 | 34000 |
| anti-LRP6 monoclonal antibody 1293.11 (antibody, V domains shown, Murine hybridoma mAb, protein G purified; also called VH20/VL20) VH: QVQLQQSGPELVKPGASVRISCKASGYTFTTYYIHWLKQRPGQGLEWIGWIFPGNVNTKYNAKFKGKATLTADKSSSTAYMQLSSLTSEDSAVYFCAREELQYYFDYWGQGSALTVSS VL: QIVLTQSPAIMSASPGEKVTISCSANSSVRFMFWYQQKPGSSPKPLIYRTSNLASGVPARFSGSGSGTSYSLTISSMEAEDAATYYCQQYHSYPWTFGGGTKLEI | 57 | 0.000124 | 2200 |
| anti-LRP6 monoclonal antibody 931.1 (antibody, V domains shown, Murine hybridoma mAb, protein G purified; also called VH13/VL13) VH: DVNLVESGGGLVKLGGSLKLSCAASGFTFSSFYMSWVRQTPEKRLDLVATINTNGGSTYYSDTVKGRFTISRDNAKNTLYLQMNSLKSEDTALFYCVRQPYYGGTMDYWGQGTSVTVSS VL: DIVLTQSPATLSVTPGDRVSLSCRASQSINNNLHWYQQKSHESPRLLIKYASQSISGIPSRFSGSGSGTDFTLSINSVETEDFGMYFCQQTNNWPLTFGAGTKLEL | 1.12 | 6.3e-05 | 56300 |
| anti-LRP6 monoclonal antibody 213.7 (antibody, V domains shown, Murine hybridoma mAb, protein G purified; also called VH3/VL3) VH: DVKLVESGGGLVKVGGSLKLSCAASGFTFSSYYMSWVRQTPEKRLELVAVINTNGGSTYYSDTVKGRFTISRDNAKNTLYLQMSSLKSEDTALYYCSRQPYYGNPFDYWGQGTTLTVSS VL: DIVLTQSPATLSVTPGDSVSLSCRASQSISNNLHWYQQKSHESPRLLIKYVSQSISGIPSRFSGSGSGTDFTLSINSVETEDFGMYFCQQSNNWPLTFGAGTKLEL | 1.72 | 9.6e-05 | 55600 |
| anti-LRP6 monoclonal antibody 240.8 (antibody, V domains shown, Murine hybridoma mAb, protein G purified; also called VH4/VL4) VH: DVKLVESGGGLVKLGGSLKLSCAASGFTFSSYYMSWVRQTPEKRLELVAAINSNGGSTYYADTMKGRFTISRDNAKNTLYLQMISLKSEDTAFYYCASELAGYGTPFAYWGHGTLVTVSA VL: DIVLTQFPATLSVTPGDSVSLSCRASQSISSNLHWYQQTSHESPRLLIKYASQSISGIPSRFSGTGSGTDFTLSINSVETEDFGMYFCQQSNTWPLTFGAGTKLEL | 6.55 | 4e-05 | 6110 |
| anti-LRP6 monoclonal antibody 498.3 (antibody, V domains shown, Murine hybridoma mAb, protein G purified; also called VH7/VL7) VH: DVKLVESGGGLVRLGGSLKLSCAASGFTFSTYYMSWVRQTPEKRLELVATINTNGGSTYYPDTLKGRFTISRDNAKNTLYLQMSSLRSEDTALYYCARQRNYGVAVDSWGQGTSVTVSS VL: DIVLTQSPATLSVTPGDSVSLSCRASQSISNNLHWYQQKSHESPRLLIKYASQSISGIPSRFSGSGSGTDFTLSINSVETEDFGMYFCQQTNNWPLTFGAGTKLER | 0.98 | 5e-05 | 50500 |
| anti-LRP6 monoclonal antibody 923.3 (antibody, V domains shown, Murine hybridoma mAb, protein G purified; also called VH12/VL12) VH: DVKLVESGGGLVKVGGSLKLSCAASGFTFSSYYMSWVRQTPEKRLELVAAININGGSTYYPDTVKGRFTISRDNAKNTLYLQMSSLKSEDTAFYYCASELAGYGTPFAYWGQGTLVTVSA VL: DIVLTQSPATLSVTPGDSVSLSCRASQSISNNLHWYQQKSHESPRLLIKYASQSISGIPSRFSGSGSGTDFTLSINSVETEDFGMYFCQQSNNWPLTFGAGTKLEL | 2.33 | 7.4e-05 | 31600 |
| anti-LRP6 monoclonal antibody 606.4 (antibody, V domains shown, Murine hybridoma mAb, protein G purified; also called VH9/VL9) VH: DVKLVESGGGLVKVGGSLKLSCAASGFTFSSYYMSWVRQTPEKRLELVAVINSNGGSTYYSETVKGRFTISRDNAKNTLYLQMSSLKSEDTALYYCSRQPYYGNPFDYWGQGTTLTVSS VL: DIVLTQSPATLSVTPGDSVSLSCRASQSISNNLHWYQQKSHESPRLLIKYVSQSISGIPSRFSGSGSGTDFTLSINSVETEDFGMYFCQQSNNWPLTFGAGTKLEL | 1.08 | 5.7e-05 | 53200 |
| anti-LRP6 monoclonal antibody 77.2 (antibody, V domains shown, Murine hybridoma mAb, protein G purified; also called mAb 77.2; VH1/VL1) VH: QVQLQQSGAELAKPGASVKMSCKASGYTFTSYWMHWVKQRPGQGLEWIGYINPSTGYTEYNQNFRDKATLTADKSSSTANMQLSSLTSEDSAVYYCARTAQYYGSPRGYYAMDSWGQGTSVTVSS VL: DIVMTQAAFSNPVTLGTSASISCRSSKSLLHSNGITYLCWFLQKPGQSPQLLIYLMSNLASGVPDRFSSSGSGTDFTLRISRVEAEDVGVYFCAQNLDLPWTFGGGTKLEI | 0.55 | 3.5e-05 | 63200 |
| anti-LRP6 monoclonal antibody 1281.1 (antibody, V domains shown, Murine hybridoma mAb, protein G purified; also called VH19/VL19) VH: QVQLQQSGAELAKPGASVKISCKASGYTFTSYWMHWVKQRPGQGLEWIGYINPNTGYSEYNQKFRDKATLTANKSSSTANMQLSSLTSDDSAVYYCARTAQYYGSPRGYYAMDSWGQGTSVTVSS VL: DIVMTQAAFSNPVTLGTSASISCRSSKSLLHSNGITYLCWFLQKPGQSPQLLIYQMSNLASGVPDRFSSSGSGTDFTLRISRVEAEDVGVYFCAQNLDLPWTFGGGTKLEI | 1.83 | 8.3e-05 | 45500 |
